Among the data in article PMC12775002, “Human O-GlcNAcase catalytic-stalk dimer anchors flexible histone binding domains” (Communications Chemistry, 2025) are binding result and Kd values, retold here.

By Kd is commonly meant the constant that tells how readily two partners part at equilibrium.

To fix the notation:
B2: human O-GlcNAcase, long isoform (OGA-L), full length (enzyme, UniProt O60502 1-916, looked up)
chain: MVQKESQATLEERESELSSNPAASAGASLEPPAAPAPGEDNPAGAGGAAVAGAAGGARRFLCGVVEGFYGRPWVMEQRKELFRRLQKWELNTYLYAPKDDYKHRMFWREMYSVEEAEQLMTLISAAREYEIEFIYAISPGLDITFSNPKEVSTLKRKLDQVSQFGCRSFALLFDDIDHNMCAADKEVFSSFAHAQVSITNEIYQYLGEPETFLFCPTEYCGTFCYPNVSQSPYLRTVGEKLLPGIEVLWTGPKVVSKEIPVESIEEVSKIIKRAPVIWDNIHANDYDQKRLFLGPYKGRSTELIPRLKGVLTNPNCEFEANYVAIHTLATWYKSNMNGVRKDVVMTDSEDSTVSIQIKLENEGSDEDIETDVLYSPQMALKLALTEWLQEFGVPHQYSSRQVAHSGAKASVVDGTPLVAAPSLNATTVVTTVYQEPIMSQGAALSGEPTTLTKEEEKKQPDEEPMDMVVEKQEETDHKNDNQILSEIVEAKMAEELKPMDTDKESIAESKSPEMSMQEDCISDIAPMQTDEQTNKEQFVPGPNEKPLYTAEPVTLEDLQLLADLFYLPYEHGPKGAQMLREFQWLRANSSVVSVNCKGKDSEKIEEWRSRAAKFEEMCGLVMGMFTRLSNCANRTILYDMYSYVWDIKSIMSMVKSFVQWLGCRSHSSAQFLIGDQEPWAFRGGLAGEFQRLLPIDGANDLFFQPPPLTPTSKVYTIRPYFPKDEASVYKICREMYDDGVGLPFQSQPDLIGDKLVGGLLSLSLDYCFVLEDEDGICGYALGTVDVTPFIKKCKISWIPFMQEKYTKPNGDKELSEAEKIMLSFHEEQEVLPETFLANFPSLIKMDIHKKVTDPSVAKSMMACLLSSLKANGSRGAFCEVRPDDKRILEFYSKLGCFEIAKMEGFPKDVVILGRSL
notes: human O-GlcNAcase (OGA), long isoform OGA-L, 103 kDa, full length, codon optimized; also called hOGA; full-length recombinant OGA; source: E. coli TOP10 (pBAD), purified (Talon resin for the arrays; HisTrap and size-exclusion chromatography for cryo-EM); not shown: His6, N-terminal, kept

In data set [1] the target is B2. The data set can be described thus: peptide or protein array; Active Motif MODified histone peptide array (384 modified histone peptides in duplicate, immobilised); 100 nM protein in 20 mM Tris pH 7.5, 1 mM DTT, 0.5 mg/mL BSA, RT 1 h; detected with anti-His6 antibody; 3 or more arrays. To be noted: both partners purified.
Data set [2] concerns the molecule itself. The data set can be described thus: cryo-EM structure; apo full-length OGA-L, about 0.5 ug/ul in 20 mM Tris, 150 mM NaCl; Titan Krios 300 kV.
Data set [3] has as its target recombinant mononucleosome with the H3K36Me3 modification. The data set can be described thus: pull-down; 500 nM biotinylated mononucleosomes with 0, 25, 50, 100, 250 and 500 nM full-length OGA in OGA assay buffer, overnight 4 °C; captured on streptavidin magnetic beads; bound OGA-L quantified by immunoblot (anti-MGEA5); saturation plot and Scatchard analysis. (In general: In western blotting, separated proteins are transferred to a membrane and probed.)

The target in data set [4] is recombinant mononucleosome with the H4K5,8,12,16Ac modification (UniProt P62805). Described as above.

B1: histone H4 1-19 peptide, K5,8,12,16Ac (peptide, UniProt P62805 2-20, looked up)
peptide: SGRGKGGKGLGKGGAKRHR
modifications: acetyl-lysine at K5, K8, K12 and K16
notes: histone H4 tail peptide, residues 1-19, on the array; also called H4 1-19 K^5,8,12,16Ac; H4K^5,8,12,16Ac; source: bought: Active Motif MODified Histone Peptide Array (peptide on the array)
In the case of B1, the binding result in data set [1] was “binds”.

Regarding B2, the binding result in data set [2] was “binds”. Also, the Kd in data set [3] was 290 nM; in data set [4] it was 220 nM.

B3: histone H4 1-19 peptide, K8,12,16Ac (peptide, UniProt P62805 2-20, looked up)
peptide: SGRGKGGKGLGKGGAKRHR
modifications: acetyl-lysine at K8, K12 and K16
notes: histone H4 tail peptide, residues 1-19, on the array; also called H4 1-19 K^8,12,16Ac; H4K^8,12,16Ac; source: bought: Active Motif MODified Histone Peptide Array (peptide on the array)
For B3, the binding result in data set [1] is reported as “binds”.
